Measured values taken from patent publication US20200397886A1.

Legend:
[1] = biological target: DS-Cav1-foldon-I53-50 nanostructure (respiratory syncytial virus (RSV)); assay: SPR after heat stress of the antigen (70 °C, 1 h); 50 nM DS-Cav1
[2] = biological target: DS-Cav1-foldon-I53-50A (respiratory syncytial virus (RSV)); assay: as above

Question: For D25 monoclonal antibody, which binding signal retained after 1 hour at 70 °C [1] is on record?
Answer: 80%

Question: What about the binding signal retained after 1 hour at 70 °C [2] of the same substance?
Answer: 50%
